Where two headings read alike, the source gives them in different places.

Common to all, as to assay: cryo-EM structure
Assay [1] deals with human glycine receptor β subunit, βem construct (human).
For assay [2] the target is unchanged. The source holds these as a separate data set.
For assay [3] the target is unchanged. The source holds these as a separate data set.

B1: human glycine receptor α3 subunit, α3em construct (receptor)
chain: ARSRSAPMSPSDFLDKLMGRTSGYDARIRPNFKGPPVNVTCNIFINSFGSIAETTMDYRVNIFLRQKWNDPRLAYSEYPDDSLDLDPSMLDSIWKPDLFFANEKGANFHEVTTDNKLLRIFKNGNVLYSIRLTLTLSCPMDLKNFPMDVQTCIMQLESFGYTMNDLIFEWQDEAPVQVAEGLTLPQFLLKEEKDLRYCTKHYNTGKFTCIEVRFHLERQMGYYLIQMYIPSLLIVILSWVSFWINMDAAPARVALGITTVLTMTTQSSGSRASLPKVSYVKAIDIWMAVCLLFVFSALLEYAAVNFVSRQHKELLRFRRKRKNKTEAFDMDDEVRESRFSFTAYGMGPCLQAKDGMTPKGPNHPVQVMPKSPDEMRKVFIDRAKKIDTISRACFPLAFLIFNIFYWVIYKILRHEDIHQQQD
In general, stoichiometry N refers to the number of molecules, sites or subunits per partner or assembly. For B1, the stoichiometry N in assay [1] and in assay [2] was 4 α3 per β throughout.

B2: human glycine receptor α3 subunit, α3S346Eem construct (phosphorylation mimetic) (receptor)
chain: ARSRSAPMSPSDFLDKLMGRTSGYDARIRPNFKGPPVNVTCNIFINSFGSIAETTMDYRVNIFLRQKWNDPRLAYSEYPDDSLDLDPSMLDSIWKPDLFFANEKGANFHEVTTDNKLLRIFKNGNVLYSIRLTLTLSCPMDLKNFPMDVQTCIMQLESFGYTMNDLIFEWQDEAPVQVAEGLTLPQFLLKEEKDLRYCTKHYNTGKFTCIEVRFHLERQMGYYLIQMYIPSLLIVILSWVSFWINMDAAPARVALGITTVLTMTTQSSGSRASLPKVSYVKAIDIWMAVCLLFVFSALLEYAAVNFVSRQHKELLRFRRKRKNKTEAFDMDDEVREERFSFTAYGMGPCLQAKDGMTPKGPNHPVQVMPKSPDEMRKVFIDRAKKIDTISRACFPLAFLIFNIFYWVIYKILRHEDIHQQQD
For B2, the stoichiometry N in assay [1] and in assay [3] was 4 α3 per β each time.

(Values after article PMC12141631.)
